Several values for one entry are separate records, joined by “and”; a condition that tells them apart may be missing. Identical values can stand only once.
Target: the molecule itself
Assay: AUC; sedimentation velocity, 20 °C, 50 mM sodium phosphate buffer pH 7.0, absorbance at 285 nm, c(s) by SEDFIT; distributions shown for 0.43 g L^-1 N-His-L-AI and 0.3 g L^-1 C-His-L-AI; self-association, monomer to oligomers

B1: N-terminal His-tagged L-arabinose isomerase (L-AI) from Enterococcus faecium DBFIQ E36 (enzyme, UniProt Q3Y1E5 1-474, looked up)
chain: MLNIGEKEFWFVVGSQHLYGEEALREVKKHAQEMVDELNENGQLPYPIRLQELAVTADTITKIMKEVNYREEVAGVITWMHTFSPAKMWIRGTKLLQKPLLHLATQYNESIPWKTIDMDFMNLNQSAHGDREYGFINARLNKQNKIVVGYWKRPEIQKEIADWMDVAVAYNESFGIKVARFGDNMRNVGVTEGDKVEAQIQFGWTVDYFGIGDLVQVIDRVSDEEVDQLFEEYKELYTFDYGDYEEKTWEEHVKVQAQQEIGIRRFLEEGGYNAFTTNFEDLYGMKQLPGLAVQRLMAEGYGFAGEGDWKTAAIDRLLKIMARGKDTGFMEDYTYELASGQEAILESHMMEVDPTLAATKPRIVVSPLSMGDREDPARLVFDGKAGEGVVVSMADFGTHYKLLINEVEAFEPTTEAPNLPVARVLWKTKPNFHEGVHSWIQAGGGHHTVVSLNLTTDQIETWAKLVELETVVIR
notes: codon-optimised synthetic gene; the construct has 481 aa including the initial methionine (MW 55,036); also called N-His-L-AI; recombinant L-AI; not shown: His6, N-terminal, kept
stoichiometry N: 4 and 6

B2: C-terminal His-tagged L-arabinose isomerase (L-AI) from Enterococcus faecium DBFIQ E36 (enzyme, UniProt Q3Y1E5 1-474, looked up)
chain: MLNIGEKEFWFVVGSQHLYGEEALREVKKHAQEMVDELNENGQLPYPIRLQELAVTADTITKIMKEVNYREEVAGVITWMHTFSPAKMWIRGTKLLQKPLLHLATQYNESIPWKTIDMDFMNLNQSAHGDREYGFINARLNKQNKIVVGYWKRPEIQKEIADWMDVAVAYNESFGIKVARFGDNMRNVGVTEGDKVEAQIQFGWTVDYFGIGDLVQVIDRVSDEEVDQLFEEYKELYTFDYGDYEEKTWEEHVKVQAQQEIGIRRFLEEGGYNAFTTNFEDLYGMKQLPGLAVQRLMAEGYGFAGEGDWKTAAIDRLLKIMARGKDTGFMEDYTYELASGQEAILESHMMEVDPTLAATKPRIVVSPLSMGDREDPARLVFDGKAGEGVVVSMADFGTHYKLLINEVEAFEPTTEAPNLPVARVLWKTKPNFHEGVHSWIQAGGGHHTVVSLNLTTDQIETWAKLVELETVVIR
notes: codon-optimised synthetic gene; the construct has 482 aa including the initial methionine (MW 55,221); also called C-His-L-AI; recombinant L-AI; not shown: His6, C-terminal, kept
stoichiometry N: 3 and 6

Source: paper PMC6149694, “Engineering the L-Arabinose Isomerase from Enterococcus Faecium for D-Tagatose Synthesis” (Molecules : A Journal of Synthetic Chemistry and Natural …, 2017)
